# T1: ERα wild type (hERα) (Homo sapiens, UniProt P03372 SEQ:1-595)
# T1 chain: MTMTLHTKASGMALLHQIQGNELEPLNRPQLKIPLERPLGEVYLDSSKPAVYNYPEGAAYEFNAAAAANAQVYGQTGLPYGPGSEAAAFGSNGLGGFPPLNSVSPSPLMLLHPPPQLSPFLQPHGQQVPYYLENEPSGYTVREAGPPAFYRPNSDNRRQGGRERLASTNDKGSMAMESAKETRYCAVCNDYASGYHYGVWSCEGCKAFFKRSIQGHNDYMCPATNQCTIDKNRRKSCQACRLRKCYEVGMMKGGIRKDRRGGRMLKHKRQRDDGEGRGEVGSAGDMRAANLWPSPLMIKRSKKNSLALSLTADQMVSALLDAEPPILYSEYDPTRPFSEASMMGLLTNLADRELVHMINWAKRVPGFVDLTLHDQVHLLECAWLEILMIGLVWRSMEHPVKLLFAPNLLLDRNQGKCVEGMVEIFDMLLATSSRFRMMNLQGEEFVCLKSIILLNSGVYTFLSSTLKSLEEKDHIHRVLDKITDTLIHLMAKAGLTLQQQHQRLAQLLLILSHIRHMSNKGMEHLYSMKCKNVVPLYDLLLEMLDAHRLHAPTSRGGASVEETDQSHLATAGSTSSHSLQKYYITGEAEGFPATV
# T2: ERα wild type (in cell) (Homo sapiens, UniProt P03372 SEQ:1-595)
# T2 chain: T1 chain
# B1: pS2 PAL probe (dsDNA)
# DNA 1: AGCTTCTCTATTGGGCCACTGTGGCCCTCATCTGAAGCT
# DNA 2: AGCTTCAGATGAGGGCCACAGTGGCCCAATAGAGAAGCT
# B2: ATL2/cERE (dsDNA)
# DNA 1: AAGCTTAGGTCACTGTGACCTATCAAGATATCGAGATAGGTCACTGTGACCTATCGACTCTAGA
# DNA 2: TCTAGAGTCGATAGGTCACAGTGACCTATCTCGATATCTTGATAGGTCACAGTGACCTAAGCTT
# B3: ATL4/PAL (dsDNA)
# DNA 1: AAGCTTGGGCCACTGTGGCCCATCAAGATATCGAGATGGGCCACTGTGGCCCATCGACAGGAATTCACGGGCCACTGTGGCCCATCAAGATATCGAGATGGGCCACTGTGGCCCATCGACTCTAGA
# DNA 2: TCTAGAGTCGATGGGCCACAGTGGCCCATCTCGATATCTTGATGGGCCACAGTGGCCCGTGAATTCCTGTCGATGGGCCACAGTGGCCCATCTCGATATCTTGATGGGCCACAGTGGCCCAAGCTT
# Assays:
# ERα wild type (hERα) = target: T1, ERα wild type (hERα); experiment: EMSA; negligible binding; settings: tags: CHO-S whole cell extract; chain copies: 2 stated; label: labeled
# Protocol: (§1) To compare binding of wild type hERα and the ER mutants to the EREs, protein titrations were performed. Increasing amounts of extracts containing equivalent levels of wild-type ER or ER mutants were incubated with the cERE. The ER:ERE complexes were then analyzed by EMSA.
# (§2) To test this idea, synthetic probe (SEQ NO: 63) comprising a perfect palindrome with both half sites representing the imperfect ERE half site in the pS2 gene was prepared (FIG. 1A(ii), pS2 PAL).
# ER4 = ER4 (Homo sapiens, UniProt P03372 SEQ:1-595, E203W,Q214A,G215R,H216G); experiment: EMSA; settings: chain copies: 2 stated; label: labeled
# Protocol: as §1, §2
# ER3.1 = ER3.1 (Homo sapiens, UniProt P03372 SEQ:1-595, E203W,Q214N,G215R,D218S); experiment: EMSA; settings: chain copies: 2 stated; label: labeled
# Protocol: as §1, §2
# ER2 = ER2 (Homo sapiens, UniProt P03372 SEQ:1-595, E203W,Q214A,G215R); experiment: EMSA; settings: chain copies: 2 stated; label: labeled
# Protocol: as §1, §2
# ER4.3 = ER4.3 (Homo sapiens, UniProt P03372 SEQ:1-595, E203W,Q214V,G215R,H216P,N217T); experiment: EMSA; settings: chain copies: 2 stated; label: labeled
# Protocol: as §1, §2
# ER3M = ER3M (Homo sapiens, UniProt P03372 SEQ:1-595, E203W,Q214A,H216G); experiment: EMSA; modestly lower than the other four mutants; settings: chain copies: 2 stated; label: labeled
# ERα wild type (in cell) = target: T2, ERα wild type (in cell); experiment: cell_activity; HepG2, 10 nM MOX, 2.5 ng plasmid; settings: chain copies: 2 inferred
# Protocol: Fresh medium and (if any) hormones were added. For MCF-7 and 231 cells, transient transfection was carried out using the Tfx™-20 reagent (Promega; Madison, Wis.) according to the manufacturer's direction with minor changes. Briefly, 1×10⁵ cells were plated in each well of 12-well microplates one day before transfection. A 1:3 ratio of DNA to lipid was used. The DMEM/F12 medium without serum was used as carrier for the DNA-lipid mixture. After 1 hour incubation with the DNA-lipid-DMEM/F12 at 37° C., the cells were transferred to fresh DMEM/F12 supplemented with 10% CD-FBS, 50,000 U/I of penicillin, 50 mg/l streptomycin and hormones. […] The cells subjected to either transfection method were harvested 48 hours post-transfection. Reporter assays were performed by lysing the cells in situ with 250 μl of passive lysis buffer (Promega).
# ER3M (in cell) = ER3M (in cell) (Homo sapiens, UniProt P03372 SEQ:1-595, E203W,Q214A,H216G); experiment: cell_activity; HepG2, 10 nM OHT; settings: chain copies: 2 inferred
# ER4.3 (in cell) = ER4.3 (in cell) (Homo sapiens, UniProt P03372 SEQ:1-595, E203W,Q214V,G215R,H216P,N217T); experiment: cell_activity; HepG2, 10 nM OHT; settings: chain copies: 2 inferred
binder,measurement,setting,value
B1,binding signal,ERα wild type (hERα),> 100 fold weaker than cERE
same,binding signal,ER4,> 30 fold higher affinity than WT
same,binding signal,ER3.1,> 30 fold higher affinity than WT
same,binding signal,ER2,> 30 fold higher affinity than WT
same,binding signal,ER4.3,> 30 fold higher affinity than WT
same,binding signal,ER3M,> 30 fold higher affinity than WT
B2,activity,ERα wild type (in cell),41 fold induction
B3,activity,ER3M (in cell),> 80 fold induction
same,activity,ER4.3 (in cell),> 80 fold induction

# — patent US20030199022, “Tamoxifen and 4-hydroxytamoxifen-activated system for regulated production of proteins in eukaryotic cells” (Board of Trustees of University of Illinois, published 2003)
